This test has as its target ACE2 receptor on Vero E6 cells (African green monkey (endogenous in Vero E6)). The experiment in a line: flow cytometry on cells; HIS-tagged S protein incubated with 1.5 × 10^5 Vero E6 cells (ACE2+), 37°C for 1 hour, in 1% BSA in PBS with 0.02% sodium azide; detected with FITC-labeled anti-HIS Ab.

The values below come from article PMC7875332.

Turning to “recombinant SARS-CoV-2 S protein, fused with a HIS tag at the C terminus (from UniProt P0DTC2) (natural protein)”, the concentration at binding saturation was 200 nM.
